Measurements as given in patent US20240400644A1 (ACROIMMUNE GUANGZHOU BIOTECH, published 2024).

T1: HMGB1-His tag protein (human, UniProt P09429 1-215, limits assumed)
T1 construct: Bought, HEK293 cell derived; also called human HMGB1; HMGB1-His protein; not shown: His tag
T1 sequence (looked up): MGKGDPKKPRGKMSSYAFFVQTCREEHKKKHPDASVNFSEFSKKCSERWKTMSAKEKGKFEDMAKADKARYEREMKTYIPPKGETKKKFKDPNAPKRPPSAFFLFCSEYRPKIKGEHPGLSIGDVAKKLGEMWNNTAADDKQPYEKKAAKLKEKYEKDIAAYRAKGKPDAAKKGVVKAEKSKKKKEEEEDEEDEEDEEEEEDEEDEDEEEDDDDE

T2: Siglec10-mIgG2aFc fusion protein (human, UniProt Q96LC7 17-546, limits assumed)
T2 construct: Bought, HEK293 cell derived; also called human Siglec-10; AcroBiosystems SIO-H525b; not shown: mouse IgG2a Fc of the bought protein
T2 sequence (looked up): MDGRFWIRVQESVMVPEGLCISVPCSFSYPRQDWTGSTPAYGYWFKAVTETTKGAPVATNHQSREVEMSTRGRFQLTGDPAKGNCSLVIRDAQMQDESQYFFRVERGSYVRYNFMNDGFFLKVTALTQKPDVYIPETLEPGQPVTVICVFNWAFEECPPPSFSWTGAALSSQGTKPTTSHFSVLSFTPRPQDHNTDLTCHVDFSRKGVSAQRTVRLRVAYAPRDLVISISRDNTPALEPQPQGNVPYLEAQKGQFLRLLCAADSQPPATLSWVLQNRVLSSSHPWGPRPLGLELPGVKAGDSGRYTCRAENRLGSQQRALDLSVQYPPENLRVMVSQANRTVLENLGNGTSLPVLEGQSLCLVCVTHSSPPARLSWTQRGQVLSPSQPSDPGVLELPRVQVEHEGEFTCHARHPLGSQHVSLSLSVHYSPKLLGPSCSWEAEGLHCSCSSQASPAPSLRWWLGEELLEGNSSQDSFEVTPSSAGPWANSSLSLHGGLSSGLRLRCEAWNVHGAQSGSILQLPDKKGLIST


Columns and labels:
[1] = biological target: CD24Fc (HEK293 cell derived) (UniProt P25063); experiment: direct ELISA, antigen coated at 10 µg/ml, mAb titrated
[2] = biological target: T1, HMGB1-His tag protein; experiment: ELISA, HMGB1-His coated at 0.1 µg/mL, fusion protein titrated
Description: 96-well plates were coated (100 μL per well) with 0.1 μg/mL HEK293 cell derived HMGB1-His tag protein (AcroBiosystems, HM1-H5220) at 4° C. overnight. After blocking with SuperBlock (Thermo, 37515) at room temperature for 1 hour, 100 μL of 2-fold serial dilutions of AI-071 or CD24Fc (all starting at 1.5 mg/mL, dilution buffer: PBST-1% BSA solution containing 1 mM MgCl2 and 1 mM CaCl2) were added. The bound AI-071 or CD24Fc protein was then detected by adding HRP-labeled goat anti-human IgG-Fc antibody (1:1000, Invitrogen, A18829), followed by the addition of tetramethylbenzidin (TMB) substrates. The EC50 values of the binding are shown in the underneath table. […] Recombinant HMGB1-His protein sample was incubated with AI-071, human IgG-Fc, or none for 5 min, the mixture was then incubated with protein A-conjugated beads to capture (or pull-down) the bound proteins. The captured proteins were then separated in a SDS-PAGE gel and visualized by Coomassie Brilliant Blue dye staining. […] As indicated on the top of each gel, lane 1 represents the sample containing HMGB1 only, lane 2 represents the sample containing HMGB1 and human IgG-Fc, and lane 3 represents the sample containing HMGB1 and AI-071, lane M is the protein molecule weight marker sample. […]

[3] = biological target: T2, Siglec10-mIgG2aFc fusion protein; experiment: ELISA, Siglec10-mIgG2aFc coated at 0.2 µg/mL, fusion protein titrated
Description: 96-well plates were coated (100 μL per well) with 0.2 μg/mL of HEK293 cell derived Siglec10-mlgG2aFc fusion protein (AcroBiosystems, SIO-H525b) at 4° C. overnight. After blocking with SuperBlock (Thermo, 37515) at room temperature for 1 hour, 100 μL of 2-fold serial dilutions of AI-071 or CD24Fc protein (all starting at 1.5 mg/mL) were added. The bound AI-071 or CD24Fc protein was then detected by HRP-labeled goat anti-human IgG-Fc antibody (1:5000, Invitrogen, A18829) followed by the addition of tetramethylbenzidine (TMB) substrates. The EC50 values of the binding are shown in the underneath table.
To probe the interaction of AI-071 protein with the members of Siglec family such as Siglec10, an ELSIA assay was developed. In-brief, 96-well plates were coated (100 μL per well) with 0.2 μg/mL of HEK293 cell derived Siglec10-mlgG2aFc fusion protein (AcroBiosystems, SIO-H525b) at 4° C. overnight. After washing and blocking with SuperBlock (Thermo, 37515) at room temperature for 1 hour, 100 μL of 2-fold serial dilutions of either AI-71 or CD24Fc (all starting at 1.5 mg/ml) were added. The bound AI-071 or CD24Fc protein was then detected by HRP-labeled goat anti-human IgG-Fc antibody (1:5000, Invitrogen, A18829) followed by the addition of Tetramethylbenzidin (TMB) substrates. […] The OD values at a wavelength of 450 nm (OD 450 nm) in each well were then measured.

| EC50 [1] [µM] | EC50 [2] [µM] | EC50 [3] [µM] | Molecule |
| --- | --- | --- | --- |
| 0.00468 |  |  | SN3 mouse anti-CD24 mAb (antibody) |
|  | 51 | 2.85 | SETTTGTSSNSSQSTSNSGLAPNPTNATTKAAG (Fc fusion, UniProt P25063 27-59, looked up, not shown: Fc part) [CD24Fc (producing cell not stated)] |
